In paper PMC3623789:

Assay: confocal imaging, co-localisation with Na+/K+-ATPase, HEK293
Settings: glycan lost; control: wild-type 3xFLAG-rPRG3

B1: rPRG3 (plasticity-related gene 3, LPR1): N163Q (protein)
parent chain: MAVENNTQRSYSIIPCFIFVELVIMAGTVLLAYYFECTDTFQVHIQGFFCQDGDLMKPYPGTEEESFISPLVLYCVLAATPTAIIFIGEISMYFIKSTRESLIAEEKMILTGDCCYLSPLLRRIVRFIGVFAFGLFATDIFVNAGQVVTGHLTPYFLTVCQPNYTSTDCRAHHQFINNGNICTGDLEVIEKARRSFPSKHAALSIYSALYATMYITSTIKTKSSRLAKPVLCLGDLCTAFLTGLNRVSEYRNHCSDVIAGFILGTAVALFLGMCVVHNFKGTQGSASKPKPEDPRGVPLMAFPRIESPLETLSAQNHSASMTEVT
  localisation_or_trafficking: abolishes
